In patent US8871205B2, “Methods and compositions for the treatment of immune disorders” (The University of North Carolina at Chapel Hill, priority 2009, dated 2014):

Test system: WT or Plxna4−/− peritoneal macrophages
Experiment: TNF-α and IL-6 production (RT-PCR, ELISA) in peritoneal macrophages stimulated with Sema3A-Fc or Sema6A-Fc in the absence or presence of LPS
Type: cell-based, mouse
Conditions: semaphorin alone, absence of LPS; macrophages
Protocol: Messenger RNA (FIG. 7A) or protein (FIG. 7B) levels of TNF-α and IL-6 were measured by RT-PCR and ELISA, respectively. The IgG Fc fragment (100 μg/ml) was used as a negative control. WT and Plxna4^−/− mice (n=7˜9 per group) were pretreated with either Sema3A-Fc or IgG Fc control proteins at a dosage of 25 μg per kg body weight 1 h prior to CLP procedure (FIG. 7C). Survival rate was monitored for 5 days. τP<0.05 compared with WT mice pretreated with Sema3A-Fc. WT mice (n=4 per group) were pretreated with either Sema3A-Fc or IgG Fc control proteins, followed by CLP surgery (FIG. 7D). Inflammatory cytokines in peritoneal lavage collected 4 h after CLP were determined by ELISA. * P<0.05 compared to peritoneal lavage from WT mice pretreated with Sema3A-Fc (FIG. 7E). […] Inflammatory cytokines in peritoneal lavage collected 4 h after CLP were determined by ELISA. *P<0.05 compared with peritoneal lavage from WT mice pretreated with Sema3A-Fc (FIG. 7G).
Total peritoneal cells were harvested from the peritoneal cavities of naïve WT or Plxna4^−/− mice with two 10 ml cold sterile PBS wash. […] The remaining cells were thoroughly washed with PBS and counted in a hemocytometer. Cytospins were prepared and stained with Diff-Quik solutions, and the number of peritoneal macrophages was determined. […]

B1: Sema6A: human Sema6A-Fc (1146-S6, R&D); chimeric protein of human IgG1 Fc fragment fused to Sema6A (protein)
chain: GFPEDSEPISISHGNYTKQYPVFVGHKPGRNTTQRHRLDIQMIMIMNGTLYIAARDHIYTVDIDTSHTEEIYCSKKLTWKSRQADVDTCRMKGKHKDECHNFIKVLLKKNDDALFVCGTNAFNPSCRNYKMDTLEPFGDEFSGMARCPYDAKHANVALFADGKLYSATVTDFLAIDAVIYRSLGESPTLRTVKHDSKWLKEPYFVQAVDYGDYIYFFFREIAVEYNTMGKVVFPRVAQVCKNDMGGSQRVLEKQWTSFLKARLNCSVPGDSHFYFNILQAVTDVIRINGRDVVLATFSTPYNSIPGSAVCAYDMLDIASVFTGRFKEQKSPDSTWTPVPDERVPKPRPGCCAGSSSLERYATSNEFPDDTLNFIKTHPLMDEAVPSIFNRPWFLRTMVRYRLTKIAVDTAAGPYQNHTVVFLGSEKGIILKFLARIGNSGFLNDSLFLEEMSVYNSEKCSYDGVEDKRIMGMQLDRASSSLYVAFSTCVIKVPLGRCERHGKCKKTCIASRDPYCGWIKEGGACSHLSPNSRLTFEQDIERGNTDGLGDCHNSFVALNGHSSSLLPSTTTSDSTAQEGYESRGGMLDWKHLLDSPDSTDPLGAVSSHNHQDKKGVIRESYLKGHDQLVPVT
modifications: left off: a dimerising Fc or GST
notes: human Sema6A-Fc (1146-S6, R&D); chimeric protein of human IgG1 Fc fragment fused to Sema6A
With B1 the “TNF-α and IL-6 production” value was “Neither Sema3A nor Sema6A alone induced”.
